Experimental data taken from the supplement of paper PMC11246515.
± gives the standard deviation of the averaged measurements.

Assay: total protein half-life in vivo (active degradation + dilution); higher = more stable protein
[1] = E. coli NCM3722 delta-clpP delta-lon delta-hslV, growth: N-lim chemostat, doubling time 6 h
[2] = E. coli NCM3722 delta-clpP, growth: N-lim chemostat, doubling time 6 h
[3] = E. coli NCM3722 delta-hslV, growth: N-lim chemostat, doubling time 6 h
[4] = E. coli NCM3722 delta-smpB, growth: N-lim chemostat, doubling time 6 h
[5] = wild type E. coli NCM3722, growth: C-lim chemostat, doubling time 3 h
[6] = wild type E. coli NCM3722, growth: C-lim chemostat, doubling time 6 h
[7] = wild type E. coli NCM3722, growth: C-lim chemostat, doubling time 12 h
[8] = wild type E. coli NCM3722, growth: N-lim chemostat, doubling time 6 h
[9] = wild type E. coli NCM3722, growth: N-lim chemostat, doubling time 12 h
[10] = wild type E. coli NCM3722, growth: P-lim chemostat, doubling time 6 h
[11] = wild type E. coli NCM3722, growth: P-lim chemostat, doubling time 12 h
[12] = E. coli NCM3722 delta-lon, growth: N-lim chemostat, doubling time 6 h

Sequence	total protein half-life in vivo [1] [h]	total protein half-life in vivo [2] [h]	total protein half-life in vivo [3] [h]	total protein half-life in vivo [4] [h]	total protein half-life in vivo [5] [h]	total protein half-life in vivo [6] [h]	total protein half-life in vivo [7] [h]	total protein half-life in vivo [8] [h]	total protein half-life in vivo [9] [h]	total protein half-life in vivo [10] [h]	total protein half-life in vivo [11] [h]	total protein half-life in vivo [12] [h]
MMKKFIAPLLALLVSGCQIDPYTHAPTLTSTDWYDVGMEDAISGSAIKDDDAFSDSQADRGLYLKGYAEGQKKTCQTDFTYARGLSGKSFPASCNNVENASQLHEVWQKGADENASTIRLN	3.02 ± 0.51	3.75 ± 0.11	4.8	3.95 ± 0.7	1.57	5.17 ± 0.12	8.56 ± 0.22	3.97	6.57 ± 0.068	4.95	10.9	–
MKRAVVVFSGGQDSTTCLVQALQQYDEVHCVTFDYGQRHRAEIDVARELALKLGARAHKVLDVTLLNELAVSSLTRDSIPVPDYEPEADGIPNTFVPGRNILFLTLAAIYAYQVKAEAVITGVCETDFSGYPDCRDEFVKALNHAVSLGMAKDIRFETPLMWIDKAETWALADYYGKLDLVRNETLTCYNGFKGDGCGHCAACNLRANGLNHYLADKPTVMAAMKQKTGLR	4.91 ± 0.072	4.53 ± 0.16	4.47 ± 0.14	3.87 ± 0.57	2.6 ± 0.17	5.36 ± 0.46	9.333 ± 0.044	4.84 ± 0.59	7.72 ± 0.73	–	12.4 ± 1.3	5.02 ± 0.59
MSANTEAQGSGRGLEAMKWVVVVALLLVAIVGNYLYRDIMLPLRALAVVILIAAAGGVALLTTKGKATVAFAREARTEVRKVIWPTRQETLHTTLIVAAVTAVMSLILWGLDGILVRLVSFITGLRF [P0AG96]	4.72	3.93	4.78 ± 0.21	4.69 ± 0.097	2.81 ± 0.067	5.11 ± 0.16	9.61	4.48 ± 0.26	8.61 ± 1.6	4.43	8.75 ± 1.2	4.6239 ± 0.0021
MIQYLNVFFYDIYPYICATVFFLGSWLRYDYGQYTWRASSSQMLDKRGMVIWSNLFHIGILGIFFGHLFGMLTPHWMYAWFLPVAAKQLMAMVLGGICGVLTLIGGAGLLWRRLTNQRVRATSTTPDIIIMSILLIQCLLGLSTIPFSAQYPDGSEMMKLVGWAQSIVTFRGGSSEMLNGVAFVFRLHLVLGMTIFLLFPFTRLVHVWSAPFEYFTRRYQIVRSRR [P0AF32]	6.36 ± 0.3	–	7.27 ± 0.96	–	–	6.54	11	–	10.7 ± 1.9	–	11.3 ± 1.8	5.71 ± 0.33
MKENNLNRVIGWSGLLLTSLLSTSALADNIGTSAEELGLSDYRHFVIYPRLDKALKAQKNNDEATAIREFEYIHQQVPDNIPLTLYLAEAYRHFGHDDRARLLLEDQLKRHPGDARLERSLAAIPVEVKSVTTVEELLAQQKACDAAPTLRCRSEVGQNALRLAQLPVARAQLNDATFAASPEGKTLRTDLLQRAIYLKQWSQADTLYNEARQQNTLSAAERRQWFDVLLAGQLDDRILALQSQGIFTDPQSYITYATALAYRGEKARLQHYLIENKPLFTTDAQEKSWLYLLSKYSANPVQALANYTVQFADNRQYVVGATLPVLLKEGQYDAAQKLLATLPANEMLEERYAVSVATRNKAEALRLARLLYQQEPANLTRLDQLTWQLMQNEQSREAADLLLQRYPFQGDARVSQTLMARLASLLESHPYLATPAKVAILSKPLPLAEQRQWQSQLPGIADNCPAIVRLLGDMSPSYDAAAWNRLAKCYRDTLPGVALYAWLQAEQRQPSAWQHRAVAYQAYQVEDYATALAAWQKISLHDMSNEDLLAAANTAQAAGNGAARDRWLQQAEKRGLGSNALYWWLHAQRYIPGQPELALNDLTRSINIAPSANAYVARATIYRQRHNVPAAVSDLRAALELEPNNSNTQAALGYALWDSGDIAQSREMLEPAHKGLPDDPALIRQLAYVNQRLDDMPATQHYARLVIDDIDNQALITPLTPEQNQQRFNFRRLHEEVGRRWTFSFDSSIGLRSGAMSTANNNVGGAAPGKSYRSYGQLEAEYRIGRNMLLEGDLLSVYSRVFADTGENGVMMPVKNPMSGTGLRWKPLRDQIFFIAVEQQLPLNGQNGASDTMLRASASFFNGGKYSDEWHPNGSGWFAQNLYLDAAQYIRQDIQAWTADYRVSWHQKVANGQTIEPYAHVQDNGYRDKGTQGAQLGGVGVRWNIWTGETHYDAWPHKVSLGVEYQHTFKAINQRNGERNNAFLTIGVHW	–	6.61 ± 0.31	–	5.92 ± 0.22	–	6.45 ± 0.45	11.31 ± 0.082	6.193 ± 0.047	12.7 ± 1	5.88 ± 0.08	–	6.08 ± 0.15
MADRNLRDLLAPWVPDAPSRALREMTLDSRVAAAGDLFVAVVGHQADGRRYIPQAIAQGVAAIIAEAKDEATDGEIREMHGVPVIYLSQLNERLSALAGRFYHEPSDNLRLVGVTGTNGKTTTTQLLAQWSQLLGEISAVMGTVGNGLLGKVIPTENTTGSAVDVQHELAGLVDQGATFCAMEVSSHGLVQHRVAALKFAASVFTNLSRDHLDYHGDMEHYEAAKWLLYSEHHCGQAIINADDEVGRRWLAKLPDAVAVSMEDHINPNCHGRWLKATEVNYHDSGATIRFSSSWGDGEIESHLMGAFNVSNLLLALATLLALGYPLADLLKTAARLQPVCGRMEVFTAPGKPTVVVDYAHTPDALEKALQAARLHCAGKLWCVFGCGGDRDKGKRPLMGAIAEEFADVAVVTDDNPRTEEPRAIINDILAGMLDAGHAKVMEGRAEAVTCAVMQAKENDVVLVAGKGHEDYQIVGNQRLDYSDRVTVARLLGVIA	5.09 ± 0.76	3.51 ± 0.15	3.43 ± 0.23	3.39 ± 0.23	2.65 ± 0.31	5.8 ± 0.085	9.05 ± 0.4	3.71 ± 0.04	6.39 ± 0.93	5.18 ± 0.14	8.724 ± 0.074	4.497 ± 0.044
